Substrate: O=CO
Experiment: purified protein, by the assay type

B1: Desulfovibrio vulgaris Hildenborough (DvH) FDH2, recombinant Strep-tag II-tagged (FDH2^Rec), large subunit DVU2482 SEQ ID NO: 31, small subunit DVU2481 SEQ ID … (protein)
chain: AELKIAKAKVTPSVCCFCAVGCGLLVYTDTQTGRSINIEGDPDHPTNEGTLCPKGASIWQTTERSKRVTKVLYRAPGAAAWEEKSWDWALPRIARKIKETRDATFELTNDKGQTVNRTRGIASVGSAAVDNEEGWLMQAMMRALGLVYIESHARIUHSSTVGALAESYGRGAMTNHWIDLKNSDVILIMGSNAAENHPISFKWVTRAQERGATLIHVDPRFTRTSAKADIHAHIRSGTDIAFFGGLIRYIMENDLFFRQYVVDYTNASYIVGADYGFADGLFTGFDAEKGTYNTKKWAFAADENGMTLKDPTLNDPRCVFQLMKAHYARYDRKTVSDVTGISEEQLATLWSTFASTGKPDRAGTILYAMGQCQHTVGVQNIRALSMIQLLLGNIGIAGGGVNALRGESNVQGTTDISLLCDNLSGYLPTPKASWATFDDYVKGTTPVDKDPKSANWWSNRGKYLASYMKSVYPTASHQDGYLWHPKVDDGKITDYSWLQIFERMSKGGFKGAFVWGQNPCAGGANAGKNRKAMETLDWMVVVNLFENESSLFWKGPGVDPAKVKTEVFFLPACMSVEKGGSIANSGRWLQWREPGPKPMGDSRSDGDIVLDLYDEIRKLYREEKGAFPEPVLALDTDYRTDGKYDHHKVAKTLNGKFLTDVTIGDKTYKAGQQVPGFAMLQADGSTTSGCWIFTGCYTDAGNMMARRDRTQTPEQAAIGLFPNWSYAWPANRRILYNRAAVDMTGKPFDPKRAVIAWNGEKWVGDVPDGGWKPGEKLPFIMIREGRGQLFGPGRVDGPFPEHYEPFESPLESHPFSKQRVNPTALAFSHEPKAVRDKRYPFICTTYRVTEQWQSGTMTRNTGWLKEMQPEGFCEISRELAKELGIANGDAVVLESLRGKVQVVAIVTPRLKPFKVMGEVMHEVGIPWQFGWGQHVGKGDSANLLSPSVGDPNTGIPETKVFMVNLRKA
other: 2 mM BV (anaerobic), full progress curve, calculated from kcat and kcat/Km, pH 8.0, 25.0 °C
  Km: 2.1 ± 0.1 µM
other: BV (2 mM), anaerobic, initial velocities, 3 replicates, pH 8.0, 25 °C
  Km: 3.5 ± 0.9 µM
other: BV (20 mM), anaerobic, initial velocities, 3 replicates, pH 8.0, 25 °C
  Km: 7 ± 3 µM
other: DCPIP (air), full progress curve, calculated from kcat and kcat/Km, pH 8.0
  Km: 4.5 ± 0.4 µM
other: DCPIP (anaerobic), full progress curve, calculated from kcat and kcat/Km, pH 8.0
  Km: 3.7 ± 0.3 µM
other: PES/DCPIP, air, initial velocities, 10 replicates, pH 8.0
  Km: 7 ± 1 µM
other: PES/DCPIP, anaerobic, initial velocities, 5 replicates, pH 8.0
  Km: 5.5 ± 0.5 µM
